The values that follow come from paper PMC3200314.

In the test the target is recombinant neuraminidase ectodomain of A/California/04/2009 (pH1N1) (influenza A virus A/California/04/2009 (H1N1)). Description: SEC. On the technique in general: SEC sorts molecules by how far they enter the pores of the column.

For “recombinant neuraminidase ectodomain of A/California/04/2009 (pH1N1) (domain or fragment)”, the stoichiometry N was found to be 4.

In general, stoichiometry N refers to the number of molecules, sites or subunits per partner or assembly.
